Data on one molecule can be found in CN112062844A (SHANDONG BOAN BIOTECHNOLOGY CO LTD, dated 2020).

The target in test [1] is T1, ANGPTL3蛋白(10770-H08B，义翘神州) (UniProt Q9Y5C1 17-460).
T1 construct: Bought protein; also called 血管生成素样蛋白3; 抗原ANGPTL3
T1 sequence (looked up): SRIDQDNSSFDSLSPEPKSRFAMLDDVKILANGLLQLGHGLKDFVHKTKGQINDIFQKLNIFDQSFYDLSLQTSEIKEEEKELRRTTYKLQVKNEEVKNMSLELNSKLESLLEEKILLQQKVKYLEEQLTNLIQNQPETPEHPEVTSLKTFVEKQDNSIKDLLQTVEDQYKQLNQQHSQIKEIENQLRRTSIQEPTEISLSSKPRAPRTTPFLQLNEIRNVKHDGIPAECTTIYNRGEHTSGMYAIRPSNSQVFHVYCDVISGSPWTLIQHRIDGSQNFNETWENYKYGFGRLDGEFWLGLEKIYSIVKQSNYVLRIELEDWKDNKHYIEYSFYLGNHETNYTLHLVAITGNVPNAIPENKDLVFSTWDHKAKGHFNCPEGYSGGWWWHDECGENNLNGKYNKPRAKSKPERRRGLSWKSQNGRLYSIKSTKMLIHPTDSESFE
Nature of the test: SPR, BIAcore 8K, antibody captured by anti-human IgG Fc on CM5, ANGPTL3 as analyte, 1:1 model.

Test [2] deals with T1, ANGPTL3蛋白(10770-H08B，义翘神州). Nature of the test: ELISA, ANGPTL3 coated at graded concentrations (0.2-0 μg/mL), antibody 1 μg/mL, OD450.
Test [3] has as its target T1, ANGPTL3蛋白(10770-H08B，义翘神州). Put plainly: cell-based or functional assay.

B1: AP-REGN-IgG4 (antibody, V domains shown)
VH: EVQLVESGGGVIQPGGSLRLSCAASGFTFDDYAMNWVRQGPGKGLEWVSAISGDGGSTYYADSVKGRFTISRDNSKNSLYLQMNSLRAEDTAFFYCAKDLRNTIFGVVIPDAFDIWGQGTMVTVSS
VL: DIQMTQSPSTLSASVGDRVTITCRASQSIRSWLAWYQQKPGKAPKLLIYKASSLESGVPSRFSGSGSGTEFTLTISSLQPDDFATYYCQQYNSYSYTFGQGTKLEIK
notes: IgG4 by its name; also called Evinacumab; evinacumab
Regarding B1, in test [1], binding was put at a Kd of 0.452 nM, the koff amounted to 0.000275 s⁻¹ and the on-rate (kon) stood at 609000 M⁻¹ s⁻¹. Also, it took 0.162 µg/mL to reach a half-maximal effect in test [2] (EC50). Moreover, the “酶活检测EC50 (LPL, DGGR底物, 荧光值)” value in test [3] came to 95.1 µg/mL.
